Data as given in publication PMC6314204 (Biochemistry, 2018).

Experiments:
[1] = test system: CC(=O)OCC1=C(C(=O)O)N2C(=O)[C@@H](NC(=O)Cc3cccs3)[C@H]2SC1; assay: purified protein; conditions: 50 mM HEPES, pH 7.5, 150 mM NaCl, 10 μM ZnCl2, 37 °C
[2] = test system: C[C@@H](O)[C@H]1C(=O)N2C(C(=O)O)=C(SCCN=CN)C[C@H]12; assay: purified protein; conditions: 50 mM HEPES, pH 7.5, 150 mM NaCl, 10 μM ZnCl2, 37 °C
[3] = test system: C[C@@H](O)[C@H]1C(=O)N2C(C(=O)O)=C(S[C@@H]3CN[C@H](C(=O)N(C)C)C3)[C@H](C)[C@H]12; assay: purified protein; conditions: 50 mM HEPES, pH 7.5, 150 mM NaCl, 10 μM ZnCl2, 37 °C
SPS-1 = SPS-1 (Sediminispirochaeta smaragdinae, UniProt E1R245); conditions: read-out: SPS-1 / Km; 50 mM HEPES, pH 7.5, 150 mM NaCl, 10 μM ZnCl2, 37 °C
SPS-1, sequence (E1R245 32-276 limits assumed): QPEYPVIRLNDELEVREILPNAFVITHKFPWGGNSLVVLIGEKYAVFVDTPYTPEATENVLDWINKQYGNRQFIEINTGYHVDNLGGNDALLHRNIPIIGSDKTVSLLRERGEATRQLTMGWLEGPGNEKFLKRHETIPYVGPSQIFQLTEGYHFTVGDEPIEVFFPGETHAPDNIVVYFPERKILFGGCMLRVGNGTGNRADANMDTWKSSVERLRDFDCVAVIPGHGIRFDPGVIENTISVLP

Substance | Km [1] | kcat [1] | kcat/Km [1] | Km [2] | kcat [2] | kcat/Km [2] | Km [3] | kcat [3] | kcat/Km [3] | Km (SPS-1)
SPS-1 (Sediminispirochaeta smaragdinae DSM 11293) | 110 ± 20 µM | 3.1 ± 0.1 s⁻¹ | 27000 M⁻¹ s⁻¹ | 290 ± 50 µM | 470 ± 60 s⁻¹ | 1.63e+06 M⁻¹ s⁻¹ | 170 ± 30 µM | 520 ± 50 s⁻¹ | 3e+06 M⁻¹ s⁻¹ | 
chromacef |  |  |  |  |  |  |  |  |  | 120 ± 9 µM
